Tests used:
[1] = tested on: K4 kissing-loop RNA reporter; assay: apparent KD of K4 kissing-loop reporter; higher = weaker reporter binding; details: Eterna round: R107;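 further: bound reporter read as fluorescence of individual clusters on recovered sequencing chips by microscopy, with normalized cluster intensities fitted with a binding model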
Protocol: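 RNA-MaP round R107: designed RNA switches with theophylline, tryptophan, arginine or FMN aptamers are transcribed on-chip within common flanks. They are titrated with a labelled K4 kissing-loop RNA reporter in RNA-MaP buffer (100 mM Tris pH 7.5, 80 mM KCl, 4 mM MgCl2), without ligand or with the indicated ligand. Median apparent KD per design.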

MS2 coat protein = assay: apparent KD of MS2 coat protein; designed switch direction (-1 OFF switch, 1 ON switch): -1; higher = weaker reporter binding
Method in brief: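 An oligonucleotide input, 200 uM small-molecule ligand, or no input was present during titration of SNAP-549-labelled MS2 coat protein, which was doubled from 0.7 or 1.5 nM to 3 µM. Designed RNA switches had been transcribed on Illumina chips by stalled E. coli RNA polymerase. Apparent KD per design is the median over clusters of curves fitted to normalised cluster fluorescence.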

[2] = input ligand: microRNA oligo, concentration not stated
[3] = Eterna round: R95, input ligand: microRNA oligo, concentration not stated
[4] = Eterna round: R95, input ligand: FMN 200 uM
[5] = Eterna round: R95, input ligand: none

| Sequence | apparent KD of MS2 coat protein (MS2 coat protein; input ligand: FMN 200 uM) | apparent KD of MS2 coat protein (MS2 coat protein; input ligand: none) | apparent KD of MS2 coat protein (MS2 coat protein; [3]) | other results |
| --- | --- | --- | --- | --- |
| UGAGGAGAGGGAAGGAGCGUGAAAGAGAAAGAAUAUAGUGAUGUUAUAUAGAAGAAAGAAUCACAGGUAGGUCGCCCGGAGGAGG [SSArgB.B] | – | – | – | apparent KD of K4 kissing-loop reporter ([1]; input ligand: FMN 200 uM): 278 nM; apparent KD of K4 kissing-loop reporter ([1]; input ligand: arginine 13.2 mM): 742 nM; apparent KD of K4 kissing-loop reporter ([1]; input ligand: none): 479 nM; apparent KD of K4 kissing-loop reporter ([1]; input ligand: theophylline 20 uM): 669 nM; apparent KD of K4 kissing-loop reporter ([1]; input ligand: tryptophan 2.4 mM): 284 nM |
| UAAUUAAUUAAUAAAUAAUACAUGAGGAUCACCCAUGUAGAUCCUACAUACAAUUUAAGUAGCUCGUCUUAUUAUUA [Sensor-V1 #61] (Eterna round: R97, puzzle: Sensor, turn-off variant 1) | 200 nM | 255 nM | – | – |
| AAGAAGAAGUAAGGAUAUGAAGAUUUGGUGAUAACAUGAGGAUCACCCAUGUGAAAACAAUAAGAUCAGAAGGUAUAAGAAGAA [AK ExNG2-2.1] (Eterna round: R96, puzzle: Exclusion NG 2) | 53.9 nM | 72.1 nM | – | apparent KD of MS2 coat protein (MS2 coat protein; [2]): 42.1 nM |
| UUUGGGCAAGCAUGAUCCCACAUGAGGAUCACCCAUGUGUUCGUCUUAUAGGCUGCUGAGGCUUUUGCCUCGGUGGC [LRO Sensor-off var1-01 loose mod of D91 from Mat747] (Eterna round: R97, puzzle: Sensor, turn-off variant 1) | 751 nM | 965 nM | – | – |
| ACAUGUUAUCCAUGAUAUUACAUGAGGAUCACCCAUGUUAUGGCGAUUUUGAUGUGUAAGUUUGUUGCUCGUCUUAU [JR_STOV1_Sub060] (Eterna round: R97, puzzle: Sensor, turn-off variant 1) | 40.9 nM | 48.1 nM | – | – |
| ACAUGAGGAUCACCCAUGUUAUGUUGGGUACUAAAUUAUUCGUAGGAUAUCGUAGCUAGUUUGUGCGAGAAGGACGCAGUUUUU [JR_ExcNG3_Sub060] (Eterna round: R96, puzzle: Exclusion NG 3) | – | – | – | apparent KD of MS2 coat protein (MS2 coat protein; [2]): 202 nM |
| GUGCAAUGAGGAUAUACGUUGGUGAACAUCUGUGUGCUCCUACAUGAGGAUCACCCAUGUAGAAGGCAUGUCAC [LRO-Excl2-18] (puzzle: Exclusion 2) | – | – | 11.3 nM | – |
| ACAUGAGGAUCACCCAUGUUUGGCUGGUUUUCUCCGGCUGUCGAGGAUAUAGUACGGUAUCCGCGCUAGAAGGUGAGGGCCGGC [Aenatbe mod 1] (Eterna round: R96, puzzle: Exclusion NG 3) | 15.5 nM | 15.8 nM | – | apparent KD of MS2 coat protein (MS2 coat protein; [2]): 14.3 nM |
| AGAGCACAUGAGGAUCACCCAUGUCAGGAUAUGCAAGAAAGAAAGAAAGAAAGAAAGAGCAGAAGGGACAAAUA [?solved?] (puzzle: Exclusion 1) | – | – | 34.2 nM | apparent KD of MS2 coat protein (MS2 coat protein; [4]): 34.9 nM; apparent KD of MS2 coat protein (MS2 coat protein; [5]): 43.2 nM |
| GACGCUAAAGGAUAUACAUGAGGAUCACCCAUGUUGAGGAAGGUUAGAUGAGGAGUAAGUAGAAGGUUAGGCGA [JR_Exclu3_Sub092] (puzzle: Exclusion 3) | – | – | 33.6 nM | – |
| UCACGGGACUGAGGAUAUACAUGAACCAUGUUUGUAGAAGGCAGAAGGUUUGAUCAUACACUAAACAUGAGGAUCACCCAUGUU [JR_ExcNG1_Sub027] (Eterna round: R96, puzzle: Exclusion NG 1) | 21.1 nM | 25.1 nM | – | apparent KD of MS2 coat protein (MS2 coat protein; [2]): 15.1 nM |
| AUCAUGUCAGGAUAUGUGAUAUGGAUCUUCGGAUCAAGUUCACAGAAGGGACAUGAGGAUCACCCAUGUCGAAC [Ex4-3: 30] (puzzle: Exclusion 4) | – | – | 40.1 nM | – |
| AAAUACAAGUAAAGAUCUUACAUGAGGAUCACCCAUGUGCUCGUCUUAUAAAGUACUAUCACGAAAGUGAUAGUACA [Sensor 3, v1 - 25] (puzzle: Sensor v3, turn-off variant 1) | – | – | 159 nM | apparent KD of MS2 coat protein (MS2 coat protein; [4]): 15.9 nM; apparent KD of MS2 coat protein (MS2 coat protein; [5]): 18.4 nM |
| UAAUUUUUAGUAAGGAUAUCGGUCCCAAGGGACAACGAGAAGGUACAUGAGGAUCACCCAUGUGAAAUAAGAAU [Mod of Zala 4 - Jieux - Brourd's Mod of Exclusion 4] (Eterna round: R97, puzzle: Brourd's mod of Exclusion 4) | 27.9 nM | 17.3 nM | – | – |
| AUUUUAUUCUGAGGAUAUUGAUUAAUCCUCUCACAUGAGGAUCACCCAUGUUUCCGUGUUUACCGCAAGAAGGCAGUUUUGUAU [JR_ExcNG2_Sub025] (Eterna round: R96, puzzle: Exclusion NG 2) | 41.4 nM | 41 nM | – | apparent KD of MS2 coat protein (MS2 coat protein; [2]): 35.2 nM |
| ACAAGCUUUUUGUUCGUCUUAUAAUAAUAAAUAAAUAUAACAUGAGGAUCACCCAUGUUGAGAAGACAGCCUCAUGU [Sesor Array 23 - Jieux - Sensor v3, turn-off variant 2] (puzzle: Sensor v3, turn-off variant 2) | – | – | 42.7 nM | apparent KD of MS2 coat protein (MS2 coat protein; [4]): 121 nM; apparent KD of MS2 coat protein (MS2 coat protein; [5]): 104 nM |
| CAUACACAUGAGGAUCACCCAUGUGAGGAUAUGCGUACGUUGUCCGUAGGCGACGUGCGCAGAAGGCGCGAGGU [JL-ex1-3.16 Eli mod] (puzzle: Exclusion 1) | – | – | 28.4 nM | – |

| Sequence | apparent KD of MS2 coat protein (MS2 coat protein; input ligand: FMN 200 uM) | apparent KD of MS2 coat protein (MS2 coat protein; input ligand: none) | apparent KD of MS2 coat protein (MS2 coat protein; [3]) | other results |
| --- | --- | --- | --- | --- |
| GCCGUAAGUGUGAGGAUAUACCUAUGGAUACAUAGGUAGAAGGCACAUGAGGAUCACCCAUGUUCUCAAUCGGC [Eli BMX r4m5] (Eterna round: R97, puzzle: Brourd's mod of Exclusion 4) | 667 nM | 125 nM | – | – |
| AAUAAUGAUAAGGAUAUCACUAGCUUCGGCUAGUGAGAAGGUAUCACAUGAGGAUCACCCAUGUGUUCCAAUAA [Ex6/6-A1] (Eterna round: R97, puzzle: Exclusion 6) | 38.1 nM | 18 nM | – | – |
| CUGAGCAGACGGAGAUCCAACAUGAGGAUCACCCAUGUCUCAUAAGCUUUUUGCUUGUCUUAUCCUCCUCUGUUCUC [Mariedxeor] (puzzle: Sensor v3, turn-off variant 1) | – | – | 315 nM | apparent KD of MS2 coat protein (MS2 coat protein; [4]): 17.7 nM; apparent KD of MS2 coat protein (MS2 coat protein; [5]): 14.4 nM |
| AGGUCCUUCUGGAGACAUGAGGAUCACCCAUGUCGAGUCAGCGAGGAUAUCGGUUAAUAAUGUGAUGAGAAGGCGCGGACCGAU [Ex NG3 #54] (Eterna round: R96, puzzle: Exclusion NG 3) | 41.5 nM | 19.3 nM | – | apparent KD of MS2 coat protein (MS2 coat protein; [2]): 11.6 nM |
| CUCGGACAUGAGGAUCACCCAUGUGAGGAUAUGAUGCGAUCGUCGAAAGACGAUAGCAUCAGAAGGUACAAAUG [Fiskers Ex 1 - 22] (puzzle: Exclusion 1) | – | – | 55.6 nM | – |
| CUUUUAAAGCAACAUCAGCACAUGAGGAUCACCCAUGUGGCGUCCCGACUGUGCACGAUUGCUCGUCUUGACUGUAU [Eternabot (L1) Solution 25] (Eterna round: R97, puzzle: Sensor, turn-off variant 1) | 179 nM | 185 nM | – | – |
| CUCUUGUCAGGAUAUCAACGCCGCCCACACGGGCGGCGAAAUGAGAAGGGACAUGAGGAUCACCCAUGUUAAAA [Orsoesarqu] (puzzle: Exclusion 4) | – | – | 133 nM | apparent KD of MS2 coat protein (MS2 coat protein; [4]): 20.3 nM; apparent KD of MS2 coat protein (MS2 coat protein; [5]): 212 nM |
| CCUAUGUGAGGAUAUCACUGGUCUUCUCACUGGAUGAUUAGUGAGAAGGCACAUGAGGAUCACCCAUGUCGGUG [Ex4 - 3 - 51] (puzzle: Exclusion 4) | – | – | 524 nM | – |
| CCGGAAAUACAGGAUAUCGUAUCGGAUACGAUACGAGAAGGGUAUACAUGAGGAUCACCCAUGUGUCCUACCGG [Fiskers Ex 6 - 51] (puzzle: Exclusion 6) | – | – | 23.6 nM | – |
| AUUAUAUAGCAAGGAUAUAGAAUAUUAUUUUAACAUGAGGAUCACCCAUGUAACCUUAUGUGUAGCUAGAAGGUGCAUUUAUUA [Title] (Eterna round: R96, puzzle: Exclusion NG 2) | – | – | – | apparent KD of MS2 coat protein (MS2 coat protein; [2]): 64.1 nM |
| CUUGUUUAUGUGAGGAUAUACUGUUAGUAUAGUUUGUAGAAGGUACAUGAGGAUCACCCAUGUUUAUUACUCUU [JR_BME4_Sub046] (puzzle: Brourd's mod of Exclusion 4) | – | – | 11.9 nM | – |
| GGUCCACAUGAGGAUCACCCAUGUUAGGAUAUCUCGCCCGAGCCCAUAUGGGCCAGGCAGAGAAGGAAUGUGAA [Quertixees] (puzzle: Exclusion 1) | – | – | 18.8 nM | – |
| GCAGACGUAGUGAGGAUAUGCUCUACCUCGGUAGAGCAGAAGGCACAUGAGGAUCACCCAUGUGGUUCCUCAUC [Omei Ex4B B19] (Eterna round: R97, puzzle: Brourd's mod of Exclusion 4) | 54 nM | 15.6 nM | – | – |
| CUCUUGGCAGGAUAUGCUCUCUUAGACAUGAGGAUCACCCAUGUGCUCAUUCCUUCUUUUGCAGAAGGGCCUUAAC [JR_E5_Sub047] (puzzle: Exclusion 5) | – | – | 63.9 nM | – |
| AUACCACGAGGAUAUCGUCUAUUUCACAUGAGGAUCACCCAUGUUAUCCUUGUUUCGUUUCGAGAAGGCGUGUUUU [JR_E5_Sub076] (puzzle: Exclusion 5) | – | – | 43.8 nM | – |
| UAAGUGCUGCGAGGAUAUACAUGAGGAUCACCCAUGUGGAUGUCUGAGGCUUUGCCUCAGACGAUGUAGAAGGCGCAGUACAAU [Mat - Exclusion NG 2 - Mod of JL - D51] (Eterna round: R96, puzzle: Exclusion NG 2) | 77.3 nM | 20.6 nM | – | apparent KD of MS2 coat protein (MS2 coat protein; [2]): 11.1 nM |
| ACAUGAGGAUCACCCAUGUGAAAACAAUGGCUGACACAGAGAUAGGAUAUAUGUGCAUAUCAAACAUAGAAGGGUCAUAACUGG [Deportation 85 - Jieux - Exclusion NG 3] (Eterna round: R96, puzzle: Exclusion NG 3) | – | – | – | apparent KD of MS2 coat protein (MS2 coat protein; [2]): 40.6 nM |

Reference: the supplement of paper PMC9170038
